The series deals with the molecule itself. Briefly: native gel or EMSA.

B1: Thermus thermophilus ClpB, full-length (natural protein)
chain: not shown
On to B1, for which the binding result is “binds”.

B2: ΔNClpB, Thermus thermophilus ClpB lacking the N-terminal domain (domain or fragment)
chain: not shown
Regarding B2, the binding result is recorded as “binds”.
